Data published in paper PMC3323579.

These substances were tested against yeast 26S proteasome (RPN11-3XFLAG) (yeast) (UniProt P43588) (assay: ELISA; competition: 8 nM apoMb on immobilised 26S proteasome with peptides 100 µM to 0.01 µM; 100 nM MG132 in all incubations; Ki from a one site binding fit).
Substance myoglobin peptide F7 (90-104) has a percent inhibition of apoMb binding at 100 µM peptide of 65%. In the case of myoglobin peptide E7 (69-83), the percent inhibition of apoMb binding at 100 µM peptide is reported as 34%.

These substances were tested against yeast 26S proteasome (RPN11-3XFLAG) (yeast) (UniProt P43588) (assay: not given).
With “apomyoglobin (sperm whale myoglobin, heme removed), wild type (from UniProt P02185 1-154) (natural protein)” the stimulation of the ATPase activity of the 26S proteasome (580 nM substrate, 37°C, 15 min) was 2 fold.

The substances below were run against yeast 26S proteasome (RPN11-3XFLAG) (yeast) (UniProt P43588) (assay: ELISA; 26S proteasome (1 µg/ml, 0.37 nM) captured on plates coated with anti-FLAG antibody; Mb 580 nM to 0.006 nM in TBST with 1 mM ATP, 5 mM MgCl2, 0.1% BSA; bound Mb detected with anti-Mb antibody; one site specific binding fit).
In the case of “apomyoglobin L104C (G-helix mutant) (natural protein)”, the Kd is reported as 0.6 nM. For “apomyoglobin L115C (G-helix mutant) (natural protein)”, the Kd was 0.63 nM. Substance “apomyoglobin V10C (A-helix mutant) (natural protein)” has a Kd of 1.25 nM. “apomyoglobin (sperm whale myoglobin, heme removed), wild type (from UniProt P02185 1-154) (natural protein)” showed a Kd of 3.5 nM. Work on “apomyoglobin T39C (C-helix mutant) (natural protein)” yielded a Kd of 19.5 nM. In the case of “apomyoglobin F-helix mutant G80A/P88A/S92A/H97N (natural protein)”, the Kd is reported as 0.57 nM. With “apomyoglobin M131C (H-helix mutant) (natural protein)” the Kd was 45 nM.
